We go through 2 molecules from patent US20170291948A1 (published 2017).

The target of the experiment is human NRP1 protein (human, UniProt O14786 22-644). The experiment in a line: ELISA.
Chain of human NRP1 protein (O14786 other isoform, or with tags, fused parts or gaps): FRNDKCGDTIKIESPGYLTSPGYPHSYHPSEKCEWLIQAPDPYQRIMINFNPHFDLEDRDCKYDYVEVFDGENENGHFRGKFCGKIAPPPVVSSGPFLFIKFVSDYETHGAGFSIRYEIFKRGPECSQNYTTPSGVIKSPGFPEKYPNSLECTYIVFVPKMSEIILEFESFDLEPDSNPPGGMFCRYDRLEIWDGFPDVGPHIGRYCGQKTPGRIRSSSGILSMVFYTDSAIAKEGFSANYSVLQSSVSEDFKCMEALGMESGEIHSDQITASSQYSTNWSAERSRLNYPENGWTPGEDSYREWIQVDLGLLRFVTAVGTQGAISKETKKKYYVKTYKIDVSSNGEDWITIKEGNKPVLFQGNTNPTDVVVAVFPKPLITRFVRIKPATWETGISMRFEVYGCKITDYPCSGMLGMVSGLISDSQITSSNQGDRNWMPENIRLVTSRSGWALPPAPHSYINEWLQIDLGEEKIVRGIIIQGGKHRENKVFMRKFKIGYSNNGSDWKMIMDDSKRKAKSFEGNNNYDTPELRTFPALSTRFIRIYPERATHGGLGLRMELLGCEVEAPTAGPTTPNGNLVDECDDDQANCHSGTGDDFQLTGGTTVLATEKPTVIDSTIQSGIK

B1: 1A03 anti-NRP1 IgG (antibody, V domains shown)
VH: EVQLLESGGGLVQPGGSLRLSCAASGFTFSSYYMSWVRQAPGKGLEWVSAISPGSSNKYYADSVQGRFTISRDNSKNTLYLQMNSLRAEDTAVYYCARRKKSFDYWGQGTLVTVSS
VL: QSVLTQPPSASGTPGQRVTISCSGPSSNIGNNDVSWYQQLPGTAPKLLIYSDNNRPSGVPDRFSGSKSGTSASLAISGLRSEDEADYYCGAWVASLSAYVFGGGTKLTVL
A word on the Kd: it is the equilibrium constant for the complex coming apart. On to B1, for which binding was characterised by a dissociation constant (Kd) of 1110 nM.

B2: IRCR-101 (3H10) anti-NRP1 IgG (antibody, V domains shown)
VH: EVQLLESGGGLVQPGGSLRLSCAASGFTFSSYYMSWVRQAPGKGLEWVSAISPGSSNKYYADSVKGRFTISRDNSKNTLYLQMNSLRAEDTAVYYCARRKYMFDYWGQGTLVTVSS
VL: QSVLTQPPSASGTPGQRVTISCTGSSSNIGNNDVYWYQQLPGTAPKLLIYSDSNRPSGVPDRFSGSKSGTSASLAISGLRSEDEADYYCASWDSSLSGYVFGGGTKLTVL
In the case of B2, binding was characterised by a dissociation constant (Kd) of 426 nM.
